Measured values reported in article doi:10.1101/2023.03.10.532002.
Where “and” joins values, the source holds several entries; their conditions need not be identical. Identical values can stand only once.

Tests used:
Conditions in all cases: remark: other sources report otherwise
[1] = target: T1, human arachidonate 12S-Lipoxygenase (12-LOX) (human), P18054; assay: SEC
T1 chain: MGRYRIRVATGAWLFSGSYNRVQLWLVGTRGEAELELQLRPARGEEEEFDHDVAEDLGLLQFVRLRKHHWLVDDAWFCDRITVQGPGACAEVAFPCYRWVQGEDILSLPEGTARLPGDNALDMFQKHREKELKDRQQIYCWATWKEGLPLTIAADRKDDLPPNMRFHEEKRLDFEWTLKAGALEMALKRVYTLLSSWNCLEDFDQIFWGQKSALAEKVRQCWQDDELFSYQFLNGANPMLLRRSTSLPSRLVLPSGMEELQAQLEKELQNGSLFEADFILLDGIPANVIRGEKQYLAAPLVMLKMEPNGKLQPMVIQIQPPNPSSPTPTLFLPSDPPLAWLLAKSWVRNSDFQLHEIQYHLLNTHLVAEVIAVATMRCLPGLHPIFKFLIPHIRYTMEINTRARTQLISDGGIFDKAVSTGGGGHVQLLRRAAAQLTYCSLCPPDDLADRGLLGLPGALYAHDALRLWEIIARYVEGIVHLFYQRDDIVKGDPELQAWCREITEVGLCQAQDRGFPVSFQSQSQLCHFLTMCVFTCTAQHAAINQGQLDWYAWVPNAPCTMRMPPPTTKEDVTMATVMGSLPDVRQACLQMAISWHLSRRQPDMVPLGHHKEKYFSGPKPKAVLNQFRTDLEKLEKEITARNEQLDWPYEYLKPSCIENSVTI

[2] = target: T1, human arachidonate 12S-Lipoxygenase …; assay: cryo-EM structure
[3] = target: T1, human arachidonate 12S-Lipoxygenase …; assay: cryo-EM structure
[4] = target: T1, human arachidonate 12S-Lipoxygenase …; assay: cryo-EM structure

- stoichiometry N [1]: 2 and 4
- stoichiometry N [2]: 4
- stoichiometry N [3]: 4
- stoichiometry N [4]: 2 and 4 and 6
B1: human arachidonate 12S-Lipoxygenase (12-LOX), P18054 1-663 (enzyme)
chain: MGRYRIRVATGAWLFSGSYNRVQLWLVGTRGEAELELQLRPARGEEEEFDHDVAEDLGLLQFVRLRKHHWLVDDAWFCDRITVQGPGACAEVAFPCYRWVQGEDILSLPEGTARLPGDNALDMFQKHREKELKDRQQIYCWATWKEGLPLTIAADRKDDLPPNMRFHEEKRLDFEWTLKAGALEMALKRVYTLLSSWNCLEDFDQIFWGQKSALAEKVRQCWQDDELFSYQFLNGANPMLLRRSTSLPSRLVLPSGMEELQAQLEKELQNGSLFEADFILLDGIPANVIRGEKQYLAAPLVMLKMEPNGKLQPMVIQIQPPNPSSPTPTLFLPSDPPLAWLLAKSWVRNSDFQLHEIQYHLLNTHLVAEVIAVATMRCLPGLHPIFKFLIPHIRYTMEINTRARTQLISDGGIFDKAVSTGGGGHVQLLRRAAAQLTYCSLCPPDDLADRGLLGLPGALYAHDALRLWEIIARYVEGIVHLFYQRDDIVKGDPELQAWCREITEVGLCQAQDRGFPVSFQSQSQLCHFLTMCVFTCTAQHAAINQGQLDWYAWVPNAPCTMRMPPPTTKEDVTMATVMGSLPDVRQACLQMAISWHLSRRQPDMVPLGHHKEKYFSGPKPKAVLNQFRTDLEKLEKEITARNEQLDWPYEYLKPSCIENSVTI
